Laboratory results taken from PMC11493965, “Ethane-oxidising archaea couple CO2 generation to F420 reduction” (Nature Communications, 2024).

Biological target: ζ subunit (F420-reductase subunit) of the CODH component of the ACDS from Candidatus Ethanoperedens thermophilum (Candidatus Ethanoperedens thermophilum)
Experiment: crystal structure; α2ε2ζ2 ACDS subcomplex purified natively as one complex; sitting drop, anaerobic, 20 °C, 20% PEG 6000, 100 mM MES pH 6.0, 200 mM ammonium chloride, 1 mM FAD and FMN added; refined to 1.89 Å

Substance: ζ subunit (F420-reductase subunit) of the CODH component of the ACDS from Candidatus Ethanoperedens thermophilum (natural protein)
- stoichiometry N: 2
